Test results taken from doi:10.1101/2023.09.20.558662 (bioRxiv, 2023).
Where a chain is given by its changes, count along the chain named. In names and notes the source's numbering stands.

Assays:
[1] = molecular target: the molecule itself; experiment: cryo-EM structure
[2] = molecular target: CUL3 N-terminal domain (CUL3^NTD, residues 1-381) (UniProt Q13618 1-381); experiment: BLI
CUL3 N-terminal domain (CUL3^NTD, residues 1-381), sequence (Q13618 1-381): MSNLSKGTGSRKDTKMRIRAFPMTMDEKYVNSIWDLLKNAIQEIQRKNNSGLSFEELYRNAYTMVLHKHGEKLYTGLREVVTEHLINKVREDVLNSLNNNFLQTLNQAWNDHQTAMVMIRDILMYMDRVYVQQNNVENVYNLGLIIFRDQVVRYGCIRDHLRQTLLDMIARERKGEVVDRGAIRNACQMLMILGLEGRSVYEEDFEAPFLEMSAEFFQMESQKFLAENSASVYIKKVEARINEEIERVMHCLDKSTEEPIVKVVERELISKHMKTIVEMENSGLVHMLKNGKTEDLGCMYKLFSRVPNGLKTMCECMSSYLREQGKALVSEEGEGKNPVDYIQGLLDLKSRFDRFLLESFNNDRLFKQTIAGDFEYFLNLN

B1: KCTD5 (full-length, purified; SEC and cryo-EM samples) (natural protein)
chain: MAENHCELLSPARGGIGAGLGGGLCRRCSAGLGALAQRPGSVSKWVRLNVGGTYFLTTRQTLCRDPKSFLYRLCQADPDLDSDKDETGAYLIDRDPTYFGPVLNYLRHGKLVINKDLAEEGVLEEAEFYNITSLIKLVKDKIRERDSKTSQVPVKHVYRVLQCQEEELTQMVSTMSDGWKFEQLVSIGSSYNYGNEDQAEFLCVVSKELHNTPYGTASEPSEKAKILQERGSRM
[1]
  stoichiometry N: 5

B2: KCTD5 L161R (natural protein)
chain: B1 chain with L161R
[2]
  binding result: binds

B3: Thioredoxin-fusion KCTD5 (natural protein)
chain: B1 chain
[2]
  Kd: 30 nM
